Consider 1 substance from PMC7804408.

The assay addresses trigger factor (TF) (E. coli) (UniProt P0A850). The experiment in a line: SPR; TF immobilised on a CM5 chip by amine coupling, analytes injected at 20 μL/min for 90 s; Biacore X, 22 °C; 10 mM HEPES pH 7.5, 150 mM NaCl, 3 mM EDTA, 0.005% P20; steady-state response against concentration, one-site Langmuir model; apparent Kd for ClpX. A general note: Surface plasmon resonance follows binding to a sensor surface in real time, without labels.

Sequence of trigger factor (TF) (E. coli) (P0A850 whole entry): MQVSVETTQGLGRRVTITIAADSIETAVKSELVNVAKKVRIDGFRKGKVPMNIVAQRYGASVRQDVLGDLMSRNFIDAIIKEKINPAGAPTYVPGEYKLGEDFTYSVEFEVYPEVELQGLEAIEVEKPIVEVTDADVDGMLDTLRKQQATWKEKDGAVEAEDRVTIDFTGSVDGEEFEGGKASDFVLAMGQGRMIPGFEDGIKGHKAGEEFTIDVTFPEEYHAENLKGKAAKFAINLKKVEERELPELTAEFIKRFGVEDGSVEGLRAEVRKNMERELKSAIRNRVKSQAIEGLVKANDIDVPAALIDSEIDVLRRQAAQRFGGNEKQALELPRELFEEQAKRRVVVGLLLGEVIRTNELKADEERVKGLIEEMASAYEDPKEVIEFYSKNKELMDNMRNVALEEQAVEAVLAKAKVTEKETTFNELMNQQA

As to “ClpX∆ZBD (AAA+ domain of ClpX) (domain or fragment)”, the Kd worked out at 2000 nM.
